For this assay, the target named is sodium taurocholate cotransporting polypeptide (NTCP) (UniProt Q14973). The assay is described as follows: cell-based or functional assay.
Sequence of UniProt Q14973 (Q14973 whole entry): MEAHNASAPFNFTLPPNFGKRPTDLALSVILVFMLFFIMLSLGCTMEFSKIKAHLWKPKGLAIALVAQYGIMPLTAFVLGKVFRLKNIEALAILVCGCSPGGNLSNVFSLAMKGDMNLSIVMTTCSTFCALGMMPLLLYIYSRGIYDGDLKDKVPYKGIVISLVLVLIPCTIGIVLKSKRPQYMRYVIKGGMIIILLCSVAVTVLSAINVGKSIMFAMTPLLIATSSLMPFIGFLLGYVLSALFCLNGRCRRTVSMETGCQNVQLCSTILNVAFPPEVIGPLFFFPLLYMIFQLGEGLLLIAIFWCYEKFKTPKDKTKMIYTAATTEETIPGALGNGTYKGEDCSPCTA

As to Myrcludex B (peptide), the DsRed-positive CreC/CIR cells by FACS, day 7 after rHBV-CreN infection (MOI=250) with MyrB was less than 1% and the DsRed-positive CreC/CIR cells by flow cytometry, day 10 after rHBV-CreN infection (MOI=300) with MyrB was less than 1%.
